Experimental findings from the supplement of paper PMC10567573 are described below.

First the molecules themselves.
B1: ZNF449 (parent)
chain: FQEYDTDCEVFRQRFRQFQYREAA
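Further: lentivirally expressed fusions sorted by FACS into six bins by GFP to DsRed ratio, PSI derived from sequencing read proportions per bin multiplied by bin number.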

The variants in this series derive from B1. Put plainly: protein stability index of a GFP-peptide fusion (GPS, HEK-293T) (PSI 1-6); higher = more stable. The note with it: c terminus: a fixed tail appended.
As to FQEYDTDCEVFRQRFRQFQYLEAA [R21L], the protein stability index was found to be 1.91. For FQEYDTDCEVFRQRFRQFQYQEAA [R21Q], the protein stability index worked out at 2.96.

With FQEYDTDCEVFRQRFRQFQYEEAA [R21E], the protein stability index turned out to be 3.16.

For the variant FQEYDTDCEVRRQRFRQFQYREAA [F11R], the protein stability index stood at 4.69. Then FQEYDTDCEVNRQRFRQFQYREAA [F11N], with 3.57; and FQEYDTDCEVLRQRFRQFQYREAA [F11L], with 2.54. Then FQEYDTDCEVWRQRFRQFQYREAA [F11W], with 2.37; and FQEYDTDCEVDRQRFRQFQYREAA [F11D], with 3.95. Turning to FQEYDTDCEVQRQRFRQFQYREAA [F11Q], the protein stability index stood at 3.24. On to FQEYDTDCEVFYQRFRQFQYREAA [R12Y], for which the protein stability index was determined as 2.06. With FQEYDTDCEVFKQRFRQFQYREAA [R12K], the protein stability index was determined as 2.38. For FQEYDTDCEVFGQRFRQFQYREAA [R12G], the protein stability index amounted to 2.57. The result for FQEYDTDCEVFLQRFRQFQYREAA [R12L] reads 1.97; that for FQEYDTDCEVFMQRFRQFQYREAA [R12M], 2.24; that for FQEYDTDCEVFEQRFRQFQYREAA [R12E], 2.48.

For FQEYDTDCEVFTQRFRQFQYREAA [R12T], the protein stability index was found to be 2.41. Then LQEYDTDCEVFRQRFRQFQYREAA [F1L], with 3.19; and AQEYDTDCEVFRQRFRQFQYREAA [F1A], with 2.85. As for GQEYDTDCEVFRQRFRQFQYREAA [F1G], the protein stability index came out at 3.31. Turning to IQEYDTDCEVFRQRFRQFQYREAA [F1I], the protein stability index was 2.81. Turning to FQEYDTDCEVFRQRFRQFVYREAA [Q19V], the protein stability index stood at 2.48. The result for FQEYDTDCEVFRQRFRQFAYREAA [Q19A] reads 2.81. Then FQEYDTDCEVFRQRFRQFDYREAA [Q19D], with 2.18; and FQEYDTDCEVFRQRFRQFKYREAA [Q19K], with 2.44; and FQEYDTDCEVFRQRFRQFMYREAA [Q19M], with 2. The result for FQEYDTDCEVFRQRFRQFNYREAA [Q19N] reads 2.29; that for FQEYDTDCEVFRQRFRQFWYREAA [Q19W], 2.35. For the variant FQEYDTDCEVFRQRFRQFSYREAA [Q19S], the protein stability index turned out to be 2.11. Take FQEYDTDCEVFRCRFRQFQYREAA [Q13C]: the protein stability index is 2.34. Regarding FQEYDTDCEVFRDRFRQFQYREAA [Q13D], the protein stability index turned out to be 2.6. Then FQEYDTDCEVFRKRFRQFQYREAA [Q13K], with 2.22; and FQEYDTDCEVFRIRFRQFQYREAA [Q13I], with 1.94. FQEYDTDCEVFRFRFRQFQYREAA [Q13F]: the protein stability index came out at 1.87. The result for FQEYDTDCEVFRLRFRQFQYREAA [Q13L] reads 1.67; that for FQEYDTDCEVFRYRFRQFQYREAA [Q13Y], 1.75. Regarding FQQYDTDCEVFRQRFRQFQYREAA [E3Q], the protein stability index came to 2.04. Take FQMYDTDCEVFRQRFRQFQYREAA [E3M]: the protein stability index is 1.85. The result for FQKYDTDCEVFRQRFRQFQYREAA [E3K] reads 2.03; that for FQYYDTDCEVFRQRFRQFQYREAA [E3Y], 1.68; that for FQLYDTDCEVFRQRFRQFQYREAA [E3L], 1.99.

Consider FQDYDTDCEVFRQRFRQFQYREAA [E3D], for which the protein stability index was 2.24.

In the case of FQEYDTDCEVFRQRMRQFQYREAA [F15M], the protein stability index stood at 2.84. Then FQEYDTDCEVFRQRCRQFQYREAA [F15C], with 2.83; and FQEYDTDCEVFRQRGRQFQYREAA [F15G], with 2.85; and FQEYDTDCEVFRQRPRQFQYREAA [F15P], with 3. FQEYDTDCEVFRQRHRQFQYREAA [F15H]: the protein stability index was found to be 3.33. For FQEYDTDCNVFRQRFRQFQYREAA [E9N], the protein stability index is 2.35. With FQEYDTDCAVFRQRFRQFQYREAA [E9A], the protein stability index turned out to be 2.

As to FQEYDTDCSVFRQRFRQFQYREAA [E9S], the protein stability index came to 1.54. On to FQEYDTDCKVFRQRFRQFQYREAA [E9K], for which the protein stability index was found to be 2.21. Then FQEYDTDCEPFRQRFRQFQYREAA [V10P], with 2.92; and FQEYDTDCEAFRQRFRQFQYREAA [V10A], with 2.2; and FQEYDTDCELFRQRFRQFQYREAA [V10L], with 2.3. Take FQEYDTDCEMFRQRFRQFQYREAA [V10M]: the protein stability index is 2.63.

As to FQEYDPDCEVFRQRFRQFQYREAA [T6P], the protein stability index worked out at 2.77.

Consider FQEYDADCEVFRQRFRQFQYREAA [T6A], for which the protein stability index is 2.58.

FQEYDVDCEVFRQRFRQFQYREAA [T6V]: the protein stability index was 2.22. Turning to FQEYDEDCEVFRQRFRQFQYREAA [T6E], the protein stability index was determined as 2.17. Then FCEYDTDCEVFRQRFRQFQYREAA [Q2C], with 2.26. Then FQEYDTDKEVFRQRFRQFQYREAA [C8K], with 2.63; and FQEYDTDWEVFRQRFRQFQYREAA [C8W], with 1.83.

FQEYDTDTEVFRQRFRQFQYREAA [C8T]: the protein stability index worked out at 2.71. The result for FQEYDTDIEVFRQRFRQFQYREAA [C8I] reads 2.49; that for FQEYDTDSEVFRQRFRQFQYREAA [C8S], 2.88; that for FQEYDTDVEVFRQRFRQFQYREAA [C8V], 2.74. In the case of FQEYDTDGEVFRQRFRQFQYREAA [C8G], the protein stability index is 2.08.

FQEYDTDCEVFRQVFRQFQYREAA [R14V]: the protein stability index is 1.65. Then FQEYDTDCEVFRQYFRQFQYREAA [R14Y], with 2.35. As to FQEMDTDCEVFRQRFRQFQYREAA [Y4M], the protein stability index came to 2.25. The result for FQETDTDCEVFRQRFRQFQYREAA [Y4T] reads 1.7. The result for FQEEDTDCEVFRQRFRQFQYREAA [Y4E] reads 3.79. The result for FQEKDTDCEVFRQRFRQFQYREAA [Y4K] reads 2.85; that for FQEHDTDCEVFRQRFRQFQYREAA [Y4H], 2.33; that for FQEYYTDCEVFRQRFRQFQYREAA [D5Y], 2.55.

For the variant FQEYKTDCEVFRQRFRQFQYREAA [D5K], the protein stability index amounted to 2.64. Then FQEYFTDCEVFRQRFRQFQYREAA [D5F], with 1.65.

For the variant FQEYDTLCEVFRQRFRQFQYREAA [D7L], the protein stability index worked out at 1.93.

For FQEYDTQCEVFRQRFRQFQYREAA [D7Q], the protein stability index stood at 2.68. As to FQEYDTRCEVFRQRFRQFQYREAA [D7R], the protein stability index was found to be 2.3. Regarding FQEYDTGCEVFRQRFRQFQYREAA [D7G], the protein stability index was 2.02.

With FQEYDTDCEVFRQRFRQFQYREAC [A24C], the protein stability index was found to be 2.96. The result for FQEYDTDCEVFRQRFRQFQYREAH [A24H] reads 1.96; that for FQEYDTDCEVFRQRFRQFQYREAV [A24V], 2.13; that for FQEYDTDCEVFRQRFRQFQYREAD [A24D], 2.8. Then FQEYDTDCEVFRQRFRQFQYREAG [A24G], with 2.51. Consider FQEYDTDCEVFRQRFRQFQYREAK [A24K], for which the protein stability index was found to be 2.76. The result for FQEYDTDCEVFRQRFRQFQYREAT [A24T] reads 2.35.

Take FQEYDTDCEVFRQRFRQFQYREAR [A24R]: the protein stability index was found to be 3.04. Then FQEYDTDCEVFRQRFRQFQPREAA [Y20P], with 2.81; and FQEYDTDCEVFRQRFRQFQGREAA [Y20G], with 3.31. The result for FQEYDTDCEVFRQRFRQFQHREAA [Y20H] reads 3.27; that for FQEYDTDCEVFRQRFRQFQKREAA [Y20K], 3.21.

On to FQEYDTDCEVFRQRFRTFQYREAA [Q17T], for which the protein stability index was 2.51. Then FQEYDTDCEVFRQRFRWFQYREAA [Q17W], with 2.17.
